According to paper PMC11638003, “Plant phytochrome interactions decode light and temperature signals” (The Plant Cell, 2024):
No end group written: not given here.

B1: P3A-mScarlet-I (Arabidopsis PIF3 residues 14 to 55, APB.A portion, fused to mScarlet-I) (domain or fragment, Arabidopsis thaliana, UniProt O80536 14-55, looked up)
chain: LESAQDRNPSPPVDEVVELVWENGQISTQSQSSRSRNIPPPQ-{mScarlet‑I}
notes: mScarlet-I: GenBank APD76536; source: E. coli LOBSTR, purified (IMAC, SENP2 cleavage, second IMAC, optionally anion exchange); not shown: His6-SUMO, N-terminal, cleaved; mScarlet-I, C-terminal, kept
B2: Arabidopsis thaliana phytochrome B residues 1 to 982, AtPhyB (1-982) (domain or fragment, UniProt P14713 1-982, looked up)
chain: MVSGVGGSGGGRGGGRGGEEEPSSSHTPNNRRGGEQAQSSGTKSLRPRSNTESMSKAIQQYTVDARLHAVFEQSGESGKSFDYSQSLKTTTYGSSVPEQQITAYLSRIQRGGYIQPFGCMIAVDESSFRIIGYSENAREMLGIMPQSVPTLEKPEILAMGTDVRSLFTSSSSILLERAFVAREITLLNPVWIHSKNTGKPFYAILHRIDVGVVIDLEPARTEDPALSIAGAVQSQKLAVRAISQLQALPGGDIKLLCDTVVESVRDLTGYDRVMVYKFHEDEHGEVVAESKRDDLEPYIGLHYPATDIPQASRFLFKQNRVRMIVDCNATPVLVVQDDRLTQSMCLVGSTLRAPHGCHSQYMANMGSIASLAMAVIINGNEDDGSNVASGRSSMRLWGLVVCHHTSSRCIPFPLRYACEFLMQAFGLQLNMELQLALQMSEKRVLRTQTLLCDMLLRDSPAGIVTQSPSIMDLVKCDGAAFLYHGKYYPLGVAPSEVQIKDVVEWLLANHADSTGLSTDSLGDAGYPGAAALGDAVCGMAVAYITKRDFLFWFRSHTAKEIKWGGAKHHPEDKDDGQRMHPRSSFQAFLEVVKSRSQPWETAEMDAIHSLQLILRDSFKESEAAMNSKVVDGVVQPCRDMAGEQGIDELGAVAREMVRLIETATVPIFAVDAGGCINGWNAKIAELTGLSVEEAMGKSLVSDLIYKENEATVNKLLSRALRGDEEKNVEVKLKTFSPELQGKAVFVVVNACSSKDYLNNIVGVCFVGQDVTSQKIVMDKFINIQGDYKAIVHSPNPLIPPIFAADENTCCLEWNMAMEKLTGWSRSEVIGKMIVGEVFGSCCMLKGPDALTKFMIVLHNAIGGQDTDKFPFPFFDRNGKFVQALLTANKRVSLEGKVIGAFCFLQIPSPELQQALAVQRRQDTECFTKAKELAYICQVIKNPLSGMRFANSLLEATDLNEDQKQLLETSVSCEKQISRIVGD
modifications: phycocyanobilin chromophore, covalently bound
notes: the oligomeric state is not measured directly here; also called AtPhyB982; source: E. coli LOBSTR, purified (Co2+-NTA IMAC, anion exchange); plasmid also encodes Synechocystis sp. heme oxygenase 1 and PcyA
B3: PIF3-mScarlet-I (Arabidopsis PIF3 residues 1 to 100 fused to mScarlet-I) (domain or fragment, Arabidopsis thaliana, UniProt O80536 1-100, looked up)
chain: MPLFELFRLTKAKLESAQDRNPSPPVDEVVELVWENGQISTQSQSSRSRNIPPPQANSSRAREIGNGSKTTMVDEIPMSVPSLMTGLSQDDDFVPWLNHH
notes: mScarlet-I: GenBank APD76536; also called AtPIF3; source: E. coli LOBSTR, purified (IMAC, SENP2 cleavage, second IMAC, optionally anion exchange); not shown: His6-SUMO, N-terminal, cleaved
B4: Arabidopsis thaliana phytochrome B, N-terminal fragment encompassing the N-terminal extension (NTE) and the photosensory core module (AtPhyB PCM) (domain or fragment, UniProt P14713 1-651, looked up)
chain: MVSGVGGSGGGRGGGRGGEEEPSSSHTPNNRRGGEQAQSSGTKSLRPRSNTESMSKAIQQYTVDARLHAVFEQSGESGKSFDYSQSLKTTTYGSSVPEQQITAYLSRIQRGGYIQPFGCMIAVDESSFRIIGYSENAREMLGIMPQSVPTLEKPEILAMGTDVRSLFTSSSSILLERAFVAREITLLNPVWIHSKNTGKPFYAILHRIDVGVVIDLEPARTEDPALSIAGAVQSQKLAVRAISQLQALPGGDIKLLCDTVVESVRDLTGYDRVMVYKFHEDEHGEVVAESKRDDLEPYIGLHYPATDIPQASRFLFKQNRVRMIVDCNATPVLVVQDDRLTQSMCLVGSTLRAPHGCHSQYMANMGSIASLAMAVIINGNEDDGSNVASGRSSMRLWGLVVCHHTSSRCIPFPLRYACEFLMQAFGLQLNMELQLALQMSEKRVLRTQTLLCDMLLRDSPAGIVTQSPSIMDLVKCDGAAFLYHGKYYPLGVAPSEVQIKDVVEWLLANHADSTGLSTDSLGDAGYPGAAALGDAVCGMAVAYITKRDFLFWFRSHTAKEIKWGGAKHHPEDKDDGQRMHPRSSFQAFLEVVKSRSQPWETAEMDAIHSLQLILRDSFKESEAAMNSKVVDGVVQPCRDMAGEQGIDELGA
modifications: phycocyanobilin chromophore, covalently bound
notes: Phytochrome B, Arabidopsis thaliana, GenBank CAA35222.1; N-terminal fragment with the NTE and the PCM (nPAS-GAF-PHY), lacking PAS1, PAS2 and the HKRD; source: E. coli LOBSTR, purified (Co2+-NTA IMAC, anion exchange); plasmid also encodes Synechocystis sp. heme oxygenase 1 and PcyA
B5: PIF6-mScarlet-I (Arabidopsis PIF6 residues 1 to 100 fused to mScarlet-I) (domain or fragment, Arabidopsis thaliana, UniProt Q8L5W7 1-100, looked up)
chain: MMFLPTDYCCRLSDQEYMELVFENGQILAKGQRSNVSLHNQRTKSIMDLYEAEYNEDFMKSIIHGGGGAITNLGDTQVVPQSHVAAAHETNMLESNKHVD
notes: mScarlet-I: GenBank APD76536; also called AtPIF6; source: E. coli LOBSTR, purified (IMAC, SENP2 cleavage, second IMAC, optionally anion exchange); not shown: His6-SUMO, N-terminal, cleaved

What was measured:
[1] = target: P3A or PIF3; experiment: FRET or BRET; as a5 (association and dissociation kinetics after a red-light pulse) at several temperatures up to 30 °C; values told for 30 °C or for 30 °C against 15 °C
[2] = target: B4; experiment: FRET or BRET; association kinetics at 15 °C after a 0.5-s pulse of red light (658 nm, 69 mW cm^-2, optical shutter); 20 nM PIF-mScarlet-I variant with 500 to 2,000 nM AtPhyB PCM, or 30 nM P6A-mScarlet-I with 750 to 2,500 nM AtPhyB (1-982); 50 mM Tris/HCl pH 8.0, 20 mM NaCl; pseudo-first-order, linear fit of koFR against the AtPhyB concentration; kaFR corrected for the Pfr fraction; Kd calculated from kdFR and kaFR …; settings: both partners purified
[3] = target: T1, P6A-mScarlet-I (Arabidopsis PIF6 residues 14 to 53, APB.A portion, fused to mScarlet-I) (Arabidopsis thaliana, UniProt Q8L5W7 14-53); experiment: FRET or BRET; as a5 (association and dissociation kinetics after a red-light pulse) at several temperatures up to 30 °C; values told for 30 °C or for 30 °C against 15 °C; settings: both partners purified
T1 construct: mScarlet-I: GenBank APD76536; source: E. coli LOBSTR, purified (IMAC, SENP2 cleavage, second IMAC, optionally anion exchange); not shown: His6-SUMO, N-terminal, cleaved; mScarlet-I, C-terminal, kept
T1 chain (looked up): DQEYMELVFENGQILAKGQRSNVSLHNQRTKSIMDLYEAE

[4] = target: B1; experiment: FRET or BRET; dissociation kinetics at 15 °C under continuous far-red light (733 nm, 42 mW cm^-2) after saturating red light; same samples as a5; consecutive model (Pfr to Pr reversion, then dissociation); kaR fixed at 0 (Pr state); settings: both partners purified
[5] = target: B5; experiment: as above; settings: both partners purified
[6] = target: B3; experiment: as above; settings: both partners purified
[7] = target: T1, P6A-mScarlet-I (Arabidopsis PIF6 …); experiment: as above; settings: both partners purified
[8] = target: B5; experiment: FRET or BRET; as a5 (association and dissociation kinetics after a red-light pulse) at several temperatures up to 30 °C; values told for 30 °C or for 30 °C against 15 °C; settings: both partners purified
[9] = target: T1, P6A-mScarlet-I (Arabidopsis PIF6 …); experiment: FRET or BRET; equilibrium titration: 20 nM P6A-mScarlet-I with 0 to 2,000 nM AtPhyB PCM at 15 °C after red light (658 nm); 50 mM Tris/HCl pH 8.0, 20 mM NaCl, 100 μg/mL BSA; single-site binding isotherm; settings: both partners purified

Molecule: Arabidopsis thaliana phytochrome B, N-terminal fragment encompassing the N-terminal extension (NTE) and the photosensory core module (AtPhyB PCM) (from UniProt P14713 1-651) (domain or fragment)
- fold reduction of the affinity, 30 °C against 15 °C [1]: 1.4 to 2.6 fold

Molecule: B1
- Kd [2]: 322 ± 109 nM
- koff [2]: 0.1 s⁻¹
- kon [2]: 310000 M⁻¹ s⁻¹

Molecule: B2
- fold change of kdFR, 30 °C against 15 °C [3]: 5 fold
- fold reduction of the affinity, 30 °C against 15 °C [3]: 3 fold

Molecule: B3
- Kd [2]: 308 ± 42 nM
- koff [2]: 0.13 s⁻¹
- kon [2]: 430000 M⁻¹ s⁻¹

Molecule: B4
- kdR (dissociation rate constant of the complex in the Pr state) [4]: 1.9 s⁻¹
- kdR (dissociation rate constant of the complex in the Pr state) [5]: 0.26 s⁻¹
- kdR (dissociation rate constant of the complex in the Pr state) [6]: 1.6 s⁻¹
- kdR (dissociation rate constant of the complex in the Pr state) [7]: 2.5 s⁻¹
- fold reduction of the affinity, 30 °C against 15 °C [8]: ~5 fold
- fold change of kaFR, 30 °C against 15 °C [3]: 1.3 fold
- fold change of kdFR, 30 °C against 15 °C [3]: 6.5 fold
- KD on the total AtPhyB concentration (not corrected for the Pfr fraction) [9]: 180 ± 110 nM

Molecule: B5
- Kd [2]: 133 ± 55 nM
- koff [2]: 0.07 s⁻¹
- kon [2]: 520000 M⁻¹ s⁻¹
